Laboratory results from the supplement of paper PMC9112550, “Optimization of the antimicrobial peptide Bac7 by deep mutational scanning” (BMC Biology, 2022).

Tested on: Escherichia coli TOP10
Assay: shrunken log2 fold change of peptide-encoding DNA abundance (4.5 h post-induction vs induction); higher = less antimicrobial activity (less host growth inhibition)
Conditions: time post-induction: 4.5 h; library: site-saturation at positions 5, 18, 19, 20
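Also: peptides expressed intracellularly from a pBAD plasmid library in pooled LB shake-flask culture, induced with 0.3% L-arabinose, DNA abundance read by NGS, three biological replicates, DESeq2 with apeglm shrinkage.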

| Sequence | shrunken log2 fold change |
| --- | --- |
| RRIRHRPPRLPRPRPRPRIEPRP | 0.15 |
| RRIRFRPPRLPRPRPRPHDEPRP | 0.099 |
| RRIRTRPPRLPRPRPRPKGHPRP | 0.208 |
| RRIRHRPPRLPRPRPRPTFWPRP | 0.179 |
| RRIRKRPPRLPRPRPRPSNWPRP | -0.00865 |
| RRIRHRPPRLPRPRPRPWMIPRP | -0.00164 |
| RRIRWRPPRLPRPRPRPNWYPRP | -0.372 |
| RRIRNRPPRLPRPRPRPTDMPRP | -0.0588 |
| RRIRGRPPRLPRPRPRPFHWPRP | 0.134 |
| RRIRARPPRLPRPRPRPGNNPRP | -0.0708 |
| RRIRIRPPRLPRPRPRPGGAPRP | 0.288 |
| RRIRRRPPRLPRPRPRPTHQPRP | 0.414 |
| RRIRNRPPRLPRPRPRPLVDPRP | 0.0463 |
| RRIRVRPPRLPRPRPRPVEQPRP | -0.0734 |
| RRIRNRPPRLPRPRPRPFSDPRP | -0.246 |
| RRIRNRPPRLPRPRPRPRWLPRP | 0.558 |
| RRIRWRPPRLPRPRPRPPQTPRP | 0.169 |
| RRIRLRPPRLPRPRPRPVNWPRP | 0.0772 |
| RRIRVRPPRLPRPRPRPTSVPRP | -0.0603 |
| RRIRQRPPRLPRPRPRPKMMPRP | -0.082 |
| RRIRPRPPRLPRPRPRPKGDPRP | 0.022 |
| RRIRARPPRLPRPRPRPLFNPRP | -0.064 |
| RRIRNRPPRLPRPRPRPFEQPRP | -0.0506 |
| RRIRERPPRLPRPRPRPVINPRP | -0.217 |
| RRIRDRPPRLPRPRPRPTWAPRP | 0.168 |

| Sequence | shrunken log2 fold change |
| --- | --- |
| RRIRVRPPRLPRPRPRPPKIPRP | -0.05 |
| RRIRCRPPRLPRPRPRPFDTPRP | -0.192 |
| RRIRWRPPRLPRPRPRPGTPPRP | 0.356 |
| RRIRCRPPRLPRPRPRPCHNPRP | -0.734 |
| RRIRLRPPRLPRPRPRPNTWPRP | -0.245 |
| RRIRERPPRLPRPRPRPQNRPRP | -0.281 |
| RRIRLRPPRLPRPRPRPIWYPRP | -0.645 |
| RRIRFRPPRLPRPRPRPGHHPRP | -0.561 |
| RRIRWRPPRLPRPRPRPHFWPRP | 0.27 |
| RRIRDRPPRLPRPRPRPQIQPRP | -0.221 |
| RRIRWRPPRLPRPRPRPDKFPRP | -0.427 |
| RRIRWRPPRLPRPRPRPFIFPRP | -0.0639 |
| RRIRTRPPRLPRPRPRPTEKPRP | 0.015 |
| RRIRGRPPRLPRPRPRPVQIPRP | 0.335 |
| RRIRFRPPRLPRPRPRPHWEPRP | -0.0104 |
| RRIRYRPPRLPRPRPRPHPEPRP | 0.037 |
| RRIRFRPPRLPRPRPRPNKGPRP | -0.606 |
| RRIRIRPPRLPRPRPRPTTLPRP | -0.506 |
| RRIRDRPPRLPRPRPRPKYHPRP | -0.412 |
| RRIRDRPPRLPRPRPRPHTEPRP | -0.0337 |
| RRIRPRPPRLPRPRPRPFDQPRP | -0.295 |
| RRIRKRPPRLPRPRPRPTPFPRP | 0.113 |
| RRIRWRPPRLPRPRPRPPTSPRP | 0.291 |
| RRIRSRPPRLPRPRPRPGIWPRP | 0.123 |
| RRIRTRPPRLPRPRPRPCRMPRP | -0.261 |

| Sequence | shrunken log2 fold change |
| --- | --- |
| RRIRCRPPRLPRPRPRPLGIPRP | -0.149 |
| RRIRIRPPRLPRPRPRPFRPPRP | 0.023 |
| RRIRYRPPRLPRPRPRPGEIPRP | -0.0481 |
| RRIRVRPPRLPRPRPRPWGGPRP | 0.307 |
| RRIRFRPPRLPRPRPRPDVIPRP | 0.0834 |
| RRIRNRPPRLPRPRPRPWVIPRP | -0.552 |
| RRIRQRPPRLPRPRPRPSFYPRP | -0.653 |
| RRIRERPPRLPRPRPRPVMTPRP | -0.221 |
| RRIRERPPRLPRPRPRPIKQPRP | -0.00681 |
| RRIRERPPRLPRPRPRPLICPRP | -0.74 |
| RRIRSRPPRLPRPRPRPVVWPRP | 0.462 |
| RRIRSRPPRLPRPRPRPELVPRP | 0.111 |
| RRIRCRPPRLPRPRPRPDTNPRP | -0.285 |
| RRIRKRPPRLPRPRPRPDHQPRP | -0.0497 |
| RRIRWRPPRLPRPRPRPMSPPRP | 0.000834 |
| RRIRLRPPRLPRPRPRPFIDPRP | -0.439 |
| RRIRLRPPRLPRPRPRPEELPRP | 0.068 |
| RRIRTRPPRLPRPRPRPDRKPRP | 0.00258 |
| RRIRFRPPRLPRPRPRPKVRPRP | -0.022 |
| RRIRFRPPRLPRPRPRPTHIPRP | -0.496 |
| RRIRVRPPRLPRPRPRPWEPPRP | 0.13 |
| RRIRFRPPRLPRPRPRPRDFPRP | -0.141 |
| RRIRMRPPRLPRPRPRPIYPPRP | -0.125 |
| RRIRDRPPRLPRPRPRPSMDPRP | -0.0183 |
| RRIRVRPPRLPRPRPRPSDRPRP | 0.194 |

| Sequence | shrunken log2 fold change |
| --- | --- |
| RRIRARPPRLPRPRPRPMVAPRP | 0.676 |
| RRIRCRPPRLPRPRPRPWSRPRP | -0.391 |
| RRIRERPPRLPRPRPRPDMTPRP | 0.133 |
| RRIRTRPPRLPRPRPRPGAIPRP | -0.0669 |
| RRIRSRPPRLPRPRPRPPGWPRP | 0.193 |
| RRIRLRPPRLPRPRPRPSWIPRP | -0.131 |
| RRIRIRPPRLPRPRPRPGSPPRP | -0.19 |
| RRIRPRPPRLPRPRPRPEKKPRP | -0.044 |
| RRIRSRPPRLPRPRPRPWLDPRP | -0.0811 |
| RRIRMRPPRLPRPRPRPMNYPRP | -0.082 |
| RRIRVRPPRLPRPRPRPYPFPRP | -0.863 |
| RRIRDRPPRLPRPRPRPNKYPRP | -0.828 |
| RRIRKRPPRLPRPRPRPHKHPRP | -0.119 |
| RRIRRRPPRLPRPRPRPSCNPRP | -0.112 |
| RRIRCRPPRLPRPRPRPVILPRP | -0.799 |
| RRIRLRPPRLPRPRPRPNLMPRP | -0.367 |
| RRIRRRPPRLPRPRPRPWAYPRP | -0.0717 |
| RRIRGRPPRLPRPRPRPRRRPRP | 1.02 |
| RRIRKRPPRLPRPRPRPKRDPRP | 0.539 |
| RRIRFRPPRLPRPRPRPWLDPRP | -0.0286 |
| RRIRQRPPRLPRPRPRPQGIPRP | -0.602 |
| RRIRMRPPRLPRPRPRPQDAPRP | 0.0668 |
| RRIRERPPRLPRPRPRPPYGPRP | -0.244 |
| RRIRTRPPRLPRPRPRPDVFPRP | 0.0603 |
| RRIRWRPPRLPRPRPRPYRCPRP | 0.0623 |

| Sequence | shrunken log2 fold change |
| --- | --- |
| RRIRWRPPRLPRPRPRPTIIPRP | -0.348 |
| RRIRDRPPRLPRPRPRPCRRPRP | -0.155 |
| RRIRDRPPRLPRPRPRPAFEPRP | 0.906 |
| RRIRVRPPRLPRPRPRPKFCPRP | -0.137 |
| RRIRHRPPRLPRPRPRPYGCPRP | -0.118 |
| RRIRFRPPRLPRPRPRPPTCPRP | 0.186 |
| RRIRQRPPRLPRPRPRPVTGPRP | 0.0279 |
| RRIRERPPRLPRPRPRPSMHPRP | -0.451 |
| RRIRRRPPRLPRPRPRPCDHPRP | 0.0118 |
| RRIRIRPPRLPRPRPRPIPTPRP | -0.0342 |
| RRIRQRPPRLPRPRPRPNPNPRP | -0.0129 |
| RRIRERPPRLPRPRPRPDGHPRP | -0.00149 |
| RRIRSRPPRLPRPRPRPSSQPRP | 0.0487 |
| RRIRERPPRLPRPRPRPVQSPRP | -0.015 |
| RRIRLRPPRLPRPRPRPGTVPRP | -0.0516 |
| RRIRHRPPRLPRPRPRPFIWPRP | -0.162 |
| RRIRARPPRLPRPRPRPSIRPRP | -0.0712 |
| RRIRERPPRLPRPRPRPDPSPRP | 0.0648 |
| RRIRMRPPRLPRPRPRPCIEPRP | -0.122 |
| RRIRARPPRLPRPRPRPIMDPRP | -0.0229 |
| RRIRYRPPRLPRPRPRPWKQPRP | -0.0389 |
| RRIRARPPRLPRPRPRPASCPRP | 0.295 |
| RRIRDRPPRLPRPRPRPYTLPRP | -0.153 |
| RRIRKRPPRLPRPRPRPSRSPRP | 0.0164 |
| RRIRERPPRLPRPRPRPLLNPRP | 0.0481 |

| Sequence | shrunken log2 fold change |
| --- | --- |
| RRIRIRPPRLPRPRPRPEPIPRP | 0.185 |
| RRIRIRPPRLPRPRPRPVFDPRP | -0.371 |
| RRIRERPPRLPRPRPRPGSSPRP | -0.331 |
| RRIRIRPPRLPRPRPRPRLYPRP | 0.0739 |
| RRIRMRPPRLPRPRPRPFHCPRP | 0.0959 |
| RRIRARPPRLPRPRPRPCASPRP | 0.158 |
| RRIRMRPPRLPRPRPRPCTGPRP | -0.0444 |
| RRIRGRPPRLPRPRPRPVGQPRP | 0.145 |
| RRIRCRPPRLPRPRPRPVPEPRP | 0.316 |
| RRIRGRPPRLPRPRPRPRHRPRP | 0.401 |
| RRIRDRPPRLPRPRPRPSVPPRP | -0.329 |
| RRIRTRPPRLPRPRPRPRHGPRP | 0.745 |
| RRIRQRPPRLPRPRPRPRQKPRP | 0.257 |
| RRIRGRPPRLPRPRPRPWMIPRP | 0.268 |
| RRIRRRPPRLPRPRPRPHWDPRP | -0.0203 |
| RRIRNRPPRLPRPRPRPDNYPRP | -0.341 |
| RRIRYRPPRLPRPRPRPPHMPRP | -0.656 |
| RRIRFRPPRLPRPRPRPSLYPRP | -0.594 |
| RRIRKRPPRLPRPRPRPPQIPRP | 0.661 |
| RRIRGRPPRLPRPRPRPGYYPRP | -0.301 |
| RRIRHRPPRLPRPRPRPVLHPRP | -0.501 |
| RRIRLRPPRLPRPRPRPSVAPRP | -0.0589 |
| RRIRMRPPRLPRPRPRPQREPRP | 0.203 |
| RRIRKRPPRLPRPRPRPMYDPRP | -0.127 |
| RRIRMRPPRLPRPRPRPFMTPRP | 0.0622 |
